Assay results from the supplement of paper PMC10065799, “High-throughput profiling of sequence recognition by tyrosine kinases and SH2 domains using bacterial peptide display” (eLife, 2023).

Assays:
FGFR1 = FGFR1 (UniProt P11362); experiment: phosphorylation enrichment, bacterial display (enrichment ratio); higher = better substrate or ligand; peptides without Tyr show the background
c-Src = experiment: as above
Fes = Fes (UniProt P07332); experiment: as above
AncSZ = experiment: as above
FGFR3 = FGFR3 (UniProt P22607); experiment: as above
Fyn = Fyn (UniProt P06241); experiment: as above
Fer (mouse) = experiment: as above
EPHB1 = EPHB1 (UniProt P54762); experiment: as above
EPHB2 = EPHB2 (UniProt P29323); experiment: as above
c-Abl (mouse) = experiment: as above
Jak2 = Jak2 (UniProt O60674); experiment: as above
MERTK = MERTK (UniProt Q12866); experiment: as above
Hck = Hck (UniProt P08631); experiment: as above
c-Src SH2 = experiment: SH2 binding enrichment of the phosphorylated peptide, bacterial display (enrichment ratio); higher = better substrate or ligand; peptides without Tyr show the background
SHP2-C SH2 = experiment: as above
Grb2 SH2 = Grb2 SH2 (UniProt P62993); experiment: as above
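For SH2 binding enrichment of the phosphorylated peptide, bacterial display in this document: peptide library displayed on the E. coli surface as eCPX fusions, selected cells deep-sequenced, score is each peptide's frequency after selection divided by its frequency in the input.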
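For phosphorylation enrichment, bacterial display in this document: 11-residue human phosphosite peptides and single-mutation variants displayed on the E. coli surface, counted by deep sequencing, each peptide's frequency after selection divided by its frequency in the unselected input library; frequency after pTyr selection over input frequency; kinase dosed for 20-30% of maximal phosphorylation in three min.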

Sequence of MERTK (Q12866 whole entry, looked up): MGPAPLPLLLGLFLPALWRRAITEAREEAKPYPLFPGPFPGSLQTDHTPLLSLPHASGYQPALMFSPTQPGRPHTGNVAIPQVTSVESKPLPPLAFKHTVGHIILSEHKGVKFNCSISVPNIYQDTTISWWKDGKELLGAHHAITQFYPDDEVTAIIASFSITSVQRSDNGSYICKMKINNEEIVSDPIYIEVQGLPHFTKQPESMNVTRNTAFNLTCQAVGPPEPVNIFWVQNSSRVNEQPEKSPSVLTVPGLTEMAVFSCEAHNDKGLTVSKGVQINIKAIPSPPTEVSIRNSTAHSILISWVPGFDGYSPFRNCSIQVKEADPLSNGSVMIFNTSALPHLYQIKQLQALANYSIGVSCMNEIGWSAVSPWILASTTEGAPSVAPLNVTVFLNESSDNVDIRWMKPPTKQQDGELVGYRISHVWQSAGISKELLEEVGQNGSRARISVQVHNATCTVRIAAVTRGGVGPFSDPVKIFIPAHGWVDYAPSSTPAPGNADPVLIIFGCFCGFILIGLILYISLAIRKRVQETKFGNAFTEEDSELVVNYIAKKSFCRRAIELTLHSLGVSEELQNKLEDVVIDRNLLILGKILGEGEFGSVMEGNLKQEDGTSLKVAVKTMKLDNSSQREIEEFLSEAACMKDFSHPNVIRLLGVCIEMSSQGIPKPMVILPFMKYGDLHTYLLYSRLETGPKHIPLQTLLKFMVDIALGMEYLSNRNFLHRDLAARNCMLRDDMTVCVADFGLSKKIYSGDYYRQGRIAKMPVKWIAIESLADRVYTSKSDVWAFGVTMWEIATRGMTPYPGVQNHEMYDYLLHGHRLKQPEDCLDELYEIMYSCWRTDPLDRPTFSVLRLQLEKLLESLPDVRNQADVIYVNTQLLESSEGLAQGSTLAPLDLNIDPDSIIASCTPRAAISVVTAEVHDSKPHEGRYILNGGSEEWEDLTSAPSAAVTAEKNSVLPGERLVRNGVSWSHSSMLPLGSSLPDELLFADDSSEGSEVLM
Sequence of FGFR3 (P22607 whole entry, looked up): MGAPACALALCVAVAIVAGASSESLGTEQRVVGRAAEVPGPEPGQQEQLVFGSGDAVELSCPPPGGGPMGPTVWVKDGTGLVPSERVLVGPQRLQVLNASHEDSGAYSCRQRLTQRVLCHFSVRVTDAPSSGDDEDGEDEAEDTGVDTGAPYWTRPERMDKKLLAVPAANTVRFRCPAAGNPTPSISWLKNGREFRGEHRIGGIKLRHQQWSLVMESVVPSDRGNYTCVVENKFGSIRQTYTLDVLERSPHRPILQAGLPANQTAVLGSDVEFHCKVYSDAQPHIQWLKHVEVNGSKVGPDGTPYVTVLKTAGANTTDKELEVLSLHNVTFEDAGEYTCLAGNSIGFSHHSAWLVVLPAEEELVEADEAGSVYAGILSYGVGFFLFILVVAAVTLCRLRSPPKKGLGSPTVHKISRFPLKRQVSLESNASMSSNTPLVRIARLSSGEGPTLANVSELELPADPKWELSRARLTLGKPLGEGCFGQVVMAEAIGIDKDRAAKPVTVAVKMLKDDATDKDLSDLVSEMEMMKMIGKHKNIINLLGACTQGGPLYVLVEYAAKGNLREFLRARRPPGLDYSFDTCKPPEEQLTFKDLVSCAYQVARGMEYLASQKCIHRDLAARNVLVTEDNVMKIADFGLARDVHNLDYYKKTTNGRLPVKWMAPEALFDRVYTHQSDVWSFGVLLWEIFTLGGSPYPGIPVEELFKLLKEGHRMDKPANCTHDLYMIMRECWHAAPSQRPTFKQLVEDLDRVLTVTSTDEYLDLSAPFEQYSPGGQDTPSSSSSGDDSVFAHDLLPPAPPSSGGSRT
Sequence of Fes (P07332 whole entry, looked up): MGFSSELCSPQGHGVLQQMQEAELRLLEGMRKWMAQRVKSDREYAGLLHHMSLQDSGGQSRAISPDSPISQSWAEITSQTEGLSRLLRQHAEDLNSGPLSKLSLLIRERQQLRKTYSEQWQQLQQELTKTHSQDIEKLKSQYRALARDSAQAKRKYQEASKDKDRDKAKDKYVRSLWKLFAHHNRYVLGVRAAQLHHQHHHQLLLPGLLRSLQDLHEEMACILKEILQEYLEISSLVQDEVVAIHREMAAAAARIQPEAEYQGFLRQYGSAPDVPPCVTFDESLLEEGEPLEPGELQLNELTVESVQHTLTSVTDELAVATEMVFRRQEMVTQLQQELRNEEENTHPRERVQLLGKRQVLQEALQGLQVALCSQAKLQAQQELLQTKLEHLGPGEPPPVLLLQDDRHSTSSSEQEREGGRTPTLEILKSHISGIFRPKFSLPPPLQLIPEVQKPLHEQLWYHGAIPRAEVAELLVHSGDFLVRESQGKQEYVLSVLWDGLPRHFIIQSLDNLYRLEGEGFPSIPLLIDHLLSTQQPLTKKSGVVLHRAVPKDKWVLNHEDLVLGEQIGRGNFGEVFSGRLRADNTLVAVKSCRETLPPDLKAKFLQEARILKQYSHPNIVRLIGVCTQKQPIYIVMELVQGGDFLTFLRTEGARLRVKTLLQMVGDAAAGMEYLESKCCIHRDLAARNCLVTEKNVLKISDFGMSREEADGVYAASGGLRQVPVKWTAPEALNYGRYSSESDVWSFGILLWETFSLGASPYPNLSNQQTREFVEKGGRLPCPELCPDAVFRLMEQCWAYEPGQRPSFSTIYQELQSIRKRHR
Sequence of Fyn (P06241 whole entry, looked up): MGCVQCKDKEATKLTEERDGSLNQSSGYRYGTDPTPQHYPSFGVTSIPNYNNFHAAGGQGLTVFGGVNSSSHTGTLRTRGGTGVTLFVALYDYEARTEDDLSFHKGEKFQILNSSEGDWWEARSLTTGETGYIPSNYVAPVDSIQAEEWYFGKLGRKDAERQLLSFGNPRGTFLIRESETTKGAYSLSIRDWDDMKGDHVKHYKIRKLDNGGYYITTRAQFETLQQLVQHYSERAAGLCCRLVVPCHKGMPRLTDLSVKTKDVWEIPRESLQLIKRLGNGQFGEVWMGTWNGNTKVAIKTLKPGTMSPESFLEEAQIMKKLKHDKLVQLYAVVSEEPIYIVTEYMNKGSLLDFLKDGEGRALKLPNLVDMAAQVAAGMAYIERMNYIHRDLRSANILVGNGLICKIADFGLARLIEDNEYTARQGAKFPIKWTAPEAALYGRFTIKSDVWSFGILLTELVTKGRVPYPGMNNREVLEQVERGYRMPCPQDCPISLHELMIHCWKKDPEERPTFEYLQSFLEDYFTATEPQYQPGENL
Sequence of Jak2 (O60674 whole entry, looked up): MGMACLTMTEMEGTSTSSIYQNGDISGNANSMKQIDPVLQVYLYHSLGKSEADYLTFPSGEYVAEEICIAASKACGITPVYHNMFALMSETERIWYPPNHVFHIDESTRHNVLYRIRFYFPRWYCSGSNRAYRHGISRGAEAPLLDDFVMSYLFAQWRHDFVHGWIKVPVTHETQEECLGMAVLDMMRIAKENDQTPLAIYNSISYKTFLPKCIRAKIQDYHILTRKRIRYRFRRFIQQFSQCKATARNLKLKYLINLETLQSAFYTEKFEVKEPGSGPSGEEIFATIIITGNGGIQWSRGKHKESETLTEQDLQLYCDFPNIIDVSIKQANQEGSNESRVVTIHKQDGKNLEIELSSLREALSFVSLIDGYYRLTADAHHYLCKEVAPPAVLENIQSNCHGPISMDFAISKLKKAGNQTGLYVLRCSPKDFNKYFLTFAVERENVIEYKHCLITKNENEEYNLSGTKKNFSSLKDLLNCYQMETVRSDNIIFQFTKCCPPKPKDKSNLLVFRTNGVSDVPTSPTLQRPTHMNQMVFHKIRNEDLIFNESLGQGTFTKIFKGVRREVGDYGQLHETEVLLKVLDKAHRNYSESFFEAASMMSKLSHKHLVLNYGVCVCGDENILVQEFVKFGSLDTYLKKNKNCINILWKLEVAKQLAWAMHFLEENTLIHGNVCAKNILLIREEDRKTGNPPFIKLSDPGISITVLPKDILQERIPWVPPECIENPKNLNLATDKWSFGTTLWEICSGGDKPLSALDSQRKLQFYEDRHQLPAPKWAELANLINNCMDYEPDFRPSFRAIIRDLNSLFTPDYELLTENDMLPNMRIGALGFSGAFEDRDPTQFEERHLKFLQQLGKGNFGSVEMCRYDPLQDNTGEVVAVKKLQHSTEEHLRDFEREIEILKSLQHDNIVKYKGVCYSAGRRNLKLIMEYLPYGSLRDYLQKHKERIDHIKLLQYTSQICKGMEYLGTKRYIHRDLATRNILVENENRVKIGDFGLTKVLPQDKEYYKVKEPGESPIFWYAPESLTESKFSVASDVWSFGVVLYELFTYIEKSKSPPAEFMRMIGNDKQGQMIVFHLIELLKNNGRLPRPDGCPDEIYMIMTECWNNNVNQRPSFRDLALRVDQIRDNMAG
Sequence of Hck (P08631 whole entry, looked up): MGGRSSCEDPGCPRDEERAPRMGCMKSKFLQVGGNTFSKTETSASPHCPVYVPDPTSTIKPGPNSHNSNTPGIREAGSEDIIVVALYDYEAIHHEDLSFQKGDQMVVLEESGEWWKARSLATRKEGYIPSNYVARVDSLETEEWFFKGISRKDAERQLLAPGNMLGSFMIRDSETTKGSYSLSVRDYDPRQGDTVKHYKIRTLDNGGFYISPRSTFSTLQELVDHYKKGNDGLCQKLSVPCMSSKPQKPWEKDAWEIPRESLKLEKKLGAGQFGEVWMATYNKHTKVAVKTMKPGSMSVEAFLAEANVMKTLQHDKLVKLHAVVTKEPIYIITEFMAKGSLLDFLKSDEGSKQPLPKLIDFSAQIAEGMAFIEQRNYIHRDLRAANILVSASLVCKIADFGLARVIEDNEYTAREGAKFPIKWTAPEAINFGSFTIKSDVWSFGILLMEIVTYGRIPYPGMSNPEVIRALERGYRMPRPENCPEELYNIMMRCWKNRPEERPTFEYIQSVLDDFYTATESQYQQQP

| SH2 binding enrichment (c-Src SH2) | SH2 binding enrichment (SHP2-C SH2) | SH2 binding enrichment (Grb2 SH2) | Sequence | phosphorylation enrichment (FGFR1) | phosphorylation enrichment (c-Src) | phosphorylation enrichment (Fes) | phosphorylation enrichment (AncSZ) | phosphorylation enrichment (FGFR3) | phosphorylation enrichment (Fyn) | phosphorylation enrichment (Fer (mouse)) | phosphorylation enrichment (EPHB1) | phosphorylation enrichment (EPHB2) | phosphorylation enrichment (c-Abl (mouse)) | phosphorylation enrichment (Jak2) | phosphorylation enrichment (MERTK) | phosphorylation enrichment (Hck) |
| --- | --- | --- | --- | --- | --- | --- | --- | --- | --- | --- | --- | --- | --- | --- | --- | --- |
| 0.498 | 0.505 | 0.752 | EKKKYYDTKIE [CASP5_Y104] | 0.365 | 0.452 | 1.03 | 0.863 | 0.637 | 0.486 | 0.381 | 0.366 | 0.518 | 0.761 | 0.779 | 0.443 | 0.511 |
| 3.05 | 4.42 | 0.775 | ELRGTYTSLQQ [KIF3C_Y574] | 0.489 | 1.39 | 0.869 | 0.705 | 0.535 | 0.978 | 0.428 | 0.398 | 0.481 | 0.684 | 0.777 | 0.434 | 0.956 |
| 0.696 | 1.01 | 1.16 | EQKKYYNAVKK [SCN5A_Y1495_M1498V] | 0.425 | 0.476 | 0.63 | 0.529 | 0.466 | 0.328 | 0.414 | 0.341 | 0.34 | 0.511 | 0.634 | 0.563 | 0.352 |
| 0.629 | 0.776 | 0.89 | EQYELYCEMGS [CBL_Y371] | 4.55 | 4.14 | 1.61 | 3.8 | 4.12 | 4.26 | 3.7 | 7.29 | 8.68 | 1.08 | 1.37 | 5.03 | 5.35 |
| 0.556 | 0.909 | 0.76 | ERMKVYVPIGF [EPHX1_Y393_T396I] | 0.412 | 0.907 | 0.742 | 0.67 | 0.538 | 1.13 | 0.425 | 0.623 | 0.497 | 0.543 | 0.597 | 0.478 | 0.622 |
| 0.6 | 0.839 | 0.823 | EWLRRHLENGK [HLA-A_Y195_Y195H] | 0.429 | 0.331 | 0.811 | 0.578 | 0.552 | 0.302 | 0.34 | 0.39 | 0.481 | 0.57 | 0.824 | 0.34 | 0.409 |
| 0.474 | 0.572 | 0.676 | EYGRRYGFSRQ [CCDC93_Y209] | 0.389 | 0.419 | 0.646 | 0.577 | 0.588 | 0.424 | 0.309 | 0.41 | 0.393 | 0.525 | 0.475 | 0.534 | 0.438 |
| 0.841 | 0.634 | 0.731 | FDAHNYHPLPV [OAT_Y55_G51D_YF] | 10.7 | 0.556 | 0.734 | 0.731 | 5.97 | 0.501 | 1.13 | 0.635 | 0.762 | 0.807 | 1.02 | 1.09 | 1.1 |
| 0.944 | 1.15 | 1.28 | FFHCTYKKRMI [CLEC12A_Y242_YF] | 0.386 | 0.39 | 1.06 | 0.894 | 0.637 | 0.364 | 0.39 | 0.444 | 0.612 | 0.532 | 0.816 | 0.321 | 0.468 |
| 0.529 | 0.653 | 0.932 | FGPPQYNMQFS [ERBB2IP_Y977_I979M_YF] | 0.448 | 0.372 | 0.679 | 0.64 | 0.452 | 0.456 | 0.306 | 0.414 | 0.427 | 0.383 | 0.49 | 0.376 | 0.52 |

More lines, now with the values behind:

| Sequence | SH2 binding enrichment (c-Src SH2) | SH2 binding enrichment (SHP2-C SH2) | SH2 binding enrichment (Grb2 SH2) | phosphorylation enrichment (FGFR1) | phosphorylation enrichment (c-Src) | phosphorylation enrichment (Fes) | phosphorylation enrichment (AncSZ) | phosphorylation enrichment (FGFR3) | phosphorylation enrichment (Fyn) | phosphorylation enrichment (Fer (mouse)) | phosphorylation enrichment (EPHB1) | phosphorylation enrichment (EPHB2) | phosphorylation enrichment (c-Abl (mouse)) | phosphorylation enrichment (Jak2) | phosphorylation enrichment (MERTK) | phosphorylation enrichment (Hck) |
| --- | --- | --- | --- | --- | --- | --- | --- | --- | --- | --- | --- | --- | --- | --- | --- | --- |
| EIHTQYEAMAS [GFAP_Y242_R239H] | 2.9 | 0.487 | 0.885 | 0.527 | 0.383 | 0.753 | 0.712 | 0.491 | 0.514 | 0.677 | 0.386 | 0.566 | 0.42 | 0.642 | 0.428 | 0.539 |
| EKEQNYDLTQV [ECD_Y448_E452Q] | 0.486 | 0.508 | 0.79 | 0.612 | 0.506 | 1.33 | 1.24 | 0.782 | 0.557 | 1.17 | 0.513 | 0.612 | 1.42 | 1.07 | 0.569 | 0.528 |
| EKKDVYKAGEQ [CFH_Y1008] | 0.596 | 0.549 | 0.954 | 0.434 | 0.394 | 0.675 | 1.08 | 0.482 | 0.404 | 0.624 | 0.336 | 0.643 | 0.475 | 0.555 | 0.425 | 0.386 |
| EQKKFSNAMKK [SCN5A_Y1495_Y1495S_YF] | 0.642 | 0.64 | 0.735 | 0.378 | 0.401 | 0.473 | 0.474 | 0.693 | 0.293 | 0.331 | 0.229 | 0.345 | 0.375 | 0.315 | 0.326 | 0.364 |
| EQKKFYNAMKN [SCN5A_Y1495_K1500N_YF] | 0.381 | 0.527 | 0.751 | 0.366 | 0.409 | 0.43 | 0.458 | 0.427 | 0.367 | 0.451 | 0.297 | 0.33 | 0.446 | 0.41 | 0.458 | 0.388 |
| ERLWDYGMSSS [F8_Y1728] | 0.597 | 0.742 | 0.779 | 0.433 | 0.419 | 1.06 | 0.971 | 0.742 | 0.415 | 0.483 | 0.612 | 0.578 | 0.767 | 0.778 | 0.399 | 0.459 |
| ERWLKYFPIEQ [HS3ST5_Y244] | 0.729 | 1.05 | 1.25 | 0.452 | 0.288 | 1.27 | 1.05 | 0.798 | 0.361 | 0.566 | 0.401 | 0.566 | 0.624 | 0.855 | 0.451 | 0.436 |
| ESDGAYIQRMQ [CCDC137_Y125_H127Q] | 0.468 | 0.708 | 0.731 | 0.385 | 0.456 | 0.772 | 0.687 | 0.54 | 0.423 | 0.417 | 0.474 | 0.496 | 0.599 | 0.985 | 0.43 | 0.446 |
| ESKKHYGYSLY [ANXA3_Y295_F291S] | 0.913 | 0.963 | 0.704 | 0.408 | 0.541 | 0.593 | 0.595 | 0.474 | 0.454 | 0.453 | 0.413 | 0.455 | 0.435 | 0.551 | 0.486 | 0.646 |
| ESMLRYDVYGG [STOX1_Y607_E608D] | 0.723 | 0.62 | 0.996 | 0.482 | 1.29 | 0.972 | 0.96 | 0.705 | 1.04 | 0.462 | 0.646 | 1.08 | 0.529 | 0.704 | 0.918 | 1.3 |
| ESPGLCGFLNV [BCR_Y910_Y910C] | 0.377 | 0.63 | 0.622 | 0.557 | 0.453 | 1.38 | 1.01 | 0.72 | 0.494 | 0.476 | 0.595 | 0.617 | 0.844 | 0.979 | 0.519 | 0.487 |
| EVVGRYSVHYA [MLH1_Y183_N187Y] | 0.544 | 0.808 | 0.75 | 0.462 | 0.404 | 1.03 | 0.751 | 0.588 | 0.392 | 0.416 | 0.475 | 0.5 | 0.649 | 0.823 | 0.46 | 0.38 |
| EYDRLYEEYTR [PIK3R1_Y467] | 3.83 | 0.678 | 0.728 | 0.826 | 5.99 | 1.43 | 2.49 | 0.889 | 7.8 | 6.02 | 4.27 | 7 | 1.34 | 1.21 | 2.8 | 6.46 |
| FADIAYNYRQG [PAH_Y166_H170Q] | 0.469 | 0.669 | 1.02 | 0.412 | 0.522 | 0.872 | 0.75 | 0.728 | 0.482 | 0.471 | 0.713 | 0.454 | 0.594 | 0.661 | 0.43 | 0.507 |
| FDDGKYVFVVT [RPS6KA3_Y488_YF] | 0.382 | 0.531 | 0.626 | 0.632 | 0.507 | 1.49 | 1.38 | 0.911 | 0.493 | 0.513 | 0.652 | 0.545 | 0.995 | 1.46 | 0.474 | 0.572 |
| FEEDPYLVVNP [MCM6_Y810_YF] | 0.507 | 0.557 | 0.769 | 1.23 | 2.65 | 1.46 | 1.87 | 1.62 | 1.88 | 0.886 | 0.743 | 0.6 | 0.87 | 1.54 | 0.533 | 1.04 |
| FFNSEYGELSE [FLT4_Y1337_YF] | 0.468 | 0.734 | 0.943 | 0.479 | 1.25 | 1.24 | 1.2 | 0.728 | 1.19 | 0.533 | 0.566 | 0.567 | 0.875 | 1.02 | 0.399 | 0.791 |
| FFVVEYRDQKP [MUC17_Y4332_YF] | 0.861 | 1.55 | 1.6 | 0.612 | 0.566 | 1.27 | 1.05 | 0.803 | 0.474 | 0.53 | 0.657 | 0.647 | 0.617 | 1.03 | 0.374 | 0.515 |
| FFVVEYRNQKP [MUC17_Y4332_D4334N_YF] | 0.865 | 1.38 | 1.46 | 0.581 | 0.608 | 1.65 | 1.32 | 0.98 | 0.623 | 0.82 | 0.795 | 0.841 | 1.52 | 1.55 | 0.413 | 0.687 |
